This series can be described thus: protease stability score; higher = more stable; yeast display proteolysis, trypsin and chymotrypsin.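 Also: relative to predicted unfolded state with 0 unfolded-like and 1 meaning tenfold more protease.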
For “SEDEKHSEHAIHLIEHSMHTGDEKTLRDNIDPHVRVHINGRDVIGRELWMEILRRDLEELGVERVDFKTHHVEVFNGRMNIDGILTQGDKRVKVQIHYTKINGRWILEELIIR”, the protease stability score was found to be 0.841.

As for “SEDKNAVHEIVERFLKAMLTGDEHILKTLLDPHVRLHIGDKSRVGMERVIHELIHIRIHELRVESMEMRLWDGRAEVHVFGEVRQRVDGQERNITTSIILHIEKIDGRWHLTQLQFIIS”, the protease stability score stood at 2.53.

For the sequence “DELHRDVTEAIKLILHAERTGNWRLMMDLMDPHVKLTIGDKEVHGMEAVFNELRTELEELGLDRFESHVRLRDFRIYDGRVDFHVELIFDFNGREIRHDTRFIVEKVDGRWFIKHIQYG”, the protease stability score amounted to 2.13.

In turn, “SEEEKEAQHLLELENDARRTGDEDFSREMVDPNVKIDINGRDLHGWDVAEELMRQADHVHHEHIRQVEVQGDKLIVDMEINGHINGKSFDIKIHLFIWKYNGKWFVRKIDVK” had a protease stability score of 1.44.

“DEVKKETDEFSEKFRHALLTGDEEEIEKMADPHVKVDIDGREHHGREEWSEIYREWIHKRGVRIKHIRDHEVRIINGRAIIDQRVHGIVNGQETTLEMHFTTTKIDGRWILTEVFVK” had a protease stability score of 1.42.

Take “SEDEKVYLKLVEDWIRIWRTGDEDMAEKLADPNVKIIIGDKSTHGREEWTRVVRELRTTEFDAHSITVVDGVVELDGRSRGDINGVEMNSHFTFILYIVDGRLKSQEIEVH”: the protease stability score is 2.03.

In turn, “SELDRDVEHVLKELAKAMRTGDEEMLHDMIDPNARMIVDGKNLHGREQIWKFFTELRVDSRRYEVKHSEIQGNKLEIDGRTRIIIIVNGREIDRETHTEIILLKINGKWLMHSVRIE” showed a protease stability score of 1.07.

“TEYEHLMEYIVRRFLEVLLTGDERELDRLADPHVIHHMKQGDKSWSLHGMELLSEVSRHWRDEIRIKRVEIHDLKNIGNWSDMYSTVHLRYNGREEVVEVRLHIDVYNGRVREVEIRIH” returned a protease stability score of 1.12.

Consider “DELEKIVEDFLRVLLEHLHTGNWEYLKEYFDPDVRIKIGDKELHGREDFVRRLREWLSRIKNATFEIEVDDNKVQGDKAILHTKVIIRVGDKLIELKTHIIVNKINGVWMVRSQSVE”, for which the protease stability score came to 1.46.

“DTEEKELQKSLKELVTAVQTGDFKLLKELFDPHVRIDIGDKNVIGREEFSRFQKEEMEKWGVSRFTFDMEIHRYEIQGNKAYVDALNREEINGQEIHFNVDLFIHKINGKWLITEIRNK” came in with a protease stability score of 0.494.

Turning to “SDEEREFDIAFHLMRHVERTGDPHDMTKMADPNVRVDINGVEVVGREQLREEMRKLGVKYSHVEDFRTFDGRVILHGTLEINGQRRNTEIYASKINGRWHVEEYRFR”, the protease stability score was 1.14.

“HEDERAFEHFIELLMHTLRTGDEELWKHLADPNYLLDVGDKHFIGRERVVEWIRHIRIKDVRVEHYKIQGDKAEIHTRVDGNIDGKELNLHSRFKMHKVDGRWLLEEVEFR” displayed a protease stability score of 2.22.

In turn, “SELKEILRKAIELLLRLWVTGDEEELLELFDPNVKLVIGDKIFIGREEFEKVSRHARVKRSDINDFRVQGDKITYDTRMDGHVNGKDIDTTVDIIAVKIDGRWFNHSIIVH” came in with a protease stability score of -0.093.

Sequence “REEEEEIRFAEEFWMELEKTGDEHKILRMADPNVRVRIGDKHHHGREHLRRVIEWRLEYAGIDKIEVRLRRVTIINGRVHIDGELIVGDKEHRVEIILVKINGRWILHEFEIR” gave a protease stability score of 1.5.

The sequence “SEEHEQLLRMAQIWIKNWLTGDEKSMIELADPRVLFIYGDKIHHGWEEMSKFLHRLMEEIRIEDLRIDSFRAYNGRVEHDTTIDVEIGDKRINLKHHFHLDVVDGRIRHVKVKID” showed a protease stability score of 0.726.

Take “SEEEEHTHRISRRFWRFLVTGDEDALLKNADPHVRLVIGDKHSHGRENFKRLLREWLEELGAKHLHIRDLEVQGNKVHTHGEMTVNGRNIETHIELVVIDGRHHSMEFRIG”: the protease stability score was -0.021.

The sequence “DEETKELEEIMKFYISAFRTGDWRLIEELADPNVRLNVDGREFHGREQFLKHFREELEHLGIDHVHVDHIDIQGEKLIIRLTIHVDGREIHNILILIIVNGRLHEVKWIRV” returned a protease stability score of 1.58.

In turn, “SEDEESSEKAAKFWLEMLRTGDWEEFERLADPNTKTHQGDKTIHGMEIVIEILMRVKGARVDTTHVRIDVQGDFVIFDVDNILNINGVHTEIRIHLRVLKVNGRWRVKELTIKHK” showed a protease stability score of 1.57.

On to “DEDERSAKHYLDLWHHALETGDEHEEERLLDPHVKVDIGDKTSHGRENTRDIIRRLLEELGADVLEFHIRHVNVVNGRVHLDGELVIKVGDYTLRSRTRLLVLKVNGRWFIERIKIE”, for which the protease stability score is 1.09.

The sequence “SESHNFFKWALEVLLLSLRTGNERHLETLADPNMRVYINGREHHGRQMYFEMVFRWIEKFPNIQIHIHIEDTRVQGDKVHVDGEYQERFNGKTFVEKVHIIMLKIDGKWVLERDEII” returned a protease stability score of 1.6.

In turn, “DEDEEREKVYHELHLHNLLTGNEEILANLVDPHVLSIVNGKELHGMDEVRKLWQELGWTWHDIHIHDEKRIGNKVHIDVRLNGNINGRTMIVRAKITITKINGRWYVSHIEII” yielded a protease stability score of 0.718.

Turning to “SEDEEEVRKFLKRLLRATETGNEQVLKELFDPNVRIVIGDKHLIGWDFMHTILRRVDVWVVRHIEIKRIDFQGDKLDIDGHVHYEEQIDGQRVSHKRDVKLIMLKVNGVWMFEYIIIH”, the protease stability score stood at 2.45.

“HEHKEEVDELISMALESMHTGDEETWYRMADPHVRMDVNGQDIHGREEVSEIYVHWLREAGVKHIKIEDVKVINGRVDLHIFSKVNGRFFEYRLISEKIDGQWHIKSVRIL” yielded a protease stability score of 0.399.

“SEDDERQRWIIEELVKTERTGDEHRRMELADPDYRLEIGDKEVHGMEEASRILHDELFNLGINHMHIKEWRVQGDKVHLEGLMVVGDKTHRVRIHYVIVNGRVKTLKWRID” displayed a protease stability score of 1.33.

As to “SEEEQHLEKMAEDLLHFILTGDEEAMRKMADPTVRLHLHIGDKEERYHGRRDVVRWFHEWVKKVKGMTIEIKRVKVFDGRIFVDGILEINGVKVRVHLITDVIDGKLTRTEERIE”, the protease stability score is 1.49.

As to “SEEERYHDKALKILKESVDTGDPHLLSRYMDPNDRLDINGREIHGMEILLKELLHIMERADHIRIELNDIKMQGDFLELDGILIIHQGEYTLQLRVKLVSLKVDGRWLHHSIEVK”, the protease stability score came out at 0.171.

With “DEEERKMEEALRLMKTTHDTGDWDLERELFDPNVKMDINGRELHGRRHWEKLRKDFGLDNIRFTLRHIDSQGDFILIRGDVEINGVRLDVIIIAEKINGRWIVREVRLR”, the protease stability score worked out at 0.718.

“DDKDQHEEVEKFARNVVSGNSDELRKQMDKDVRANVGDKTLRGREEVADFWKHMRDRIDHAEIKEIRFHNGEARIVMQFVHNGRTKQINIVMEFHDGHVKRLRVEDG” gave a protease stability score of 2.58.

For the sequence “SEDHEMAKRIVKQFMEEIFTGDWRDFEELLDPDVRIIIGDKELHGREQFELELRHMRRSIDEMHFTDAKVVGDKMIFDTRMKITIHVNGKELRFTTKSTFFILKVDGVWRIRQITVL”, the protease stability score stood at 2.13.

On to “SEIREETQRVIEEFLRNHKTGDESLFHELADPNARLHFHQGDKRLDFIGREHVLEFWSRVSKELGVDHVELKDHKLQGDKMILHIESEVNGRRMIIIDISDKIDGRWVLHTLHIHVE”, for which the protease stability score came to 0.466.

The sequence “DEEEEATEKFFEKLLRSWKTGDEKSYEELLDPHARSDINGKIFHGRDKLSQMLHEFLKRVKGITIHDVKVHDSRLIDGRAILDGRVDMKVGDKRFELNREVVTLKVDGRWILESEIVK” had a protease stability score of 0.767.

Turning to “TEDEDVLKEATRLFVEALKTGDWDHMRRLIDPNARVTQGDKEIHGMEDTVKIRRHLYEKWGVERVEMRIHDMEYQGDKLKVDMELQIGDKHKRIELVLRKVDGQWIIERIRYT”, the protease stability score amounted to 0.528.

“DRLHEMAREFSEEWSRAVKTGDEQLYSKLVDPNARFSIGEFDFHGRDEVSRIMKHWRIEDVHLSSVSVQGEKVEIRGHLHGDFDGRRQDVEVIIIVLKVNGRWFLRDLEFR” had a protease stability score of 1.31.

“SEDEEEERRVEKLWSKALHTGDEEELHRLADPNVLLNFDGVEYIGREEFLKHFRRLVHEARIEFIILKDSKLIDGRLHIHGIDLVTQGDKRIELKSEVIVLKINGRWIIHHIHIH” yielded a protease stability score of 0.75.

Values taken from the NTF2 design screens of Basanta et al. (2020).
